This note sets out measurements from paper PMC3970736, “Peptide transporter isoforms are discriminated by the fluorophore‐conjugated dipeptides β‐Ala‐ and d‐Ala‐Lys‐N‐7‐amino‐4‐methylcoumarin‐3‐acetic acid” (Physiological Reports, 2013).

Holding throughout (experiment): two-electrode voltage clamp, Xenopus oocytes, Michaelis-Menten fit of transport current
For orientation: Two-electrode voltage clamp is typically applied to oocytes expressing channels or transporters.

Substrate in data set [1]: NCC(=O)N[C@@H](CCC(N)=O)C(=O)O
Format: cell-based, Oryctolagus cuniculus. The settings on record: pH 6.5, -160 mV, apparent transport affinity, GQ Km values 'in part published previously'. An excerpt:
(§1) two-electrode voltage clamp, Xenopus oocytes, Michaelis-Menten fit of transport current on rPEPT2

Substrate in data set [2]: Cc1c(CC(=O)NCCCC[C@H](NC(=O)CCN)C(=O)O)c(=O)oc2cc(N)ccc12
Format: cell-based, Oryctolagus cuniculus. The settings on record: pH 6.5, -160 mV, 0.05-2 mmol/L range, apparent transport affinity.
Excerpt: as §1

Substrate in data set [3]: NCC(=O)N[C@@H](CCC(N)=O)C(=O)O
The data set is classed as cell-based, Danio rerio. The settings on record: pH 6.5, -160 mV, apparent transport affinity, GQ Km values 'in part published previously'. The source says:
(§2) two-electrode voltage clamp, Xenopus oocytes, Michaelis-Menten fit of transport current on zfPEPT2

Substrate in data set [4]: Cc1c(CC(=O)NCCCC[C@H](NC(=O)CCN)C(=O)O)c(=O)oc2cc(N)ccc12
The data set is classed as cell-based, Danio rerio. The settings on record: pH 6.5, -160 mV, 0.05-2 mmol/L range, apparent transport affinity.
Excerpt: as §2

Substrate in data set [5]: NCC(=O)N[C@@H](CCC(N)=O)C(=O)O
The data set is classed as cell-based, Caenorhabditis elegans. The settings on record: pH 6.5, -60 mV, apparent transport affinity, GQ Km values 'in part published previously'. An excerpt: (§3) two-electrode voltage clamp, Xenopus oocytes, Michaelis-Menten fit of transport current on cePEPT1

Substrate in data set [6]: Cc1c(CC(=O)NCCCC[C@H](NC(=O)CCN)C(=O)O)c(=O)oc2cc(N)ccc12
The data set is classed as cell-based, Caenorhabditis elegans. The settings on record: pH 6.5, -60 mV, 0.5-4 mmol/L range, apparent transport affinity.
Excerpt: as §3

B1: rPEPT2 (Oryctolagus cuniculus) (protein)
chain: MNPFQQNESKETLFSPVSTEETPPRLSSPAKKTPPKICGSNYPLSIAFIVVNEFCERFSYYGMKAVLTLYFLYFLHWNEDTSTSVYHAFSSLCYFTPILGAAIADSWLGKFKTIIYLSLVNVLGHVIKSLSAFPILGGKVVHTVLSLVGLCLIALGTGGIKPCVAAFGGDQFEEKHAEERTRYFSGFYLAINAGSLISTFITPMLRGDVQCFGEDCYALAFGVPGLLMVIALVVFAMGSKMYKKPPPEGNIVAQVVKCIWFAISNRFKNRSEDIPKRQHWLDWAAEKYPKQLIMDVKTLTRVLFLYIPLPMFWALLDQQGSRWTLQATKMNGNLGFFVLQPDQMQVLNPLLVLIFIPLFDLVIYRLISKCGINFTSLRKMAVGMVLACLAFAAAATVEIKINEMAPPQPGSQEILLQVLNLADDEVKLTVLGNNNNSLLADSIKSFQKTPHYSKIHLNTKSQDFYFHLKYHNLSIYTEHSVEERNWYSLIIREDGKSISSIMVKDMENETTYGMTAIRFINTLQENVNISLGTDISLNVGENYGVSAYRTVQRGEYPAVHCKTEDKDFSLNLGLLDFGASYLFVITNSTKQGLQAWKMEDIPANKVSIAWQLPQYALVTAGEVMFSVTGLEFSYSQAPSSMKSVLQAAWLLTVAIGNIIVLVVAQFSGLVQWAEFVLFSCLLLVVCLIFSIMGYYYIPIKSEDIQGPEDKQIPHMQGNMINLETKKTKL
notes: full-length (729 residues) cRNA expressed in Xenopus laevis oocytes
For the protein B1, the Km (usually the concentration of substrate that gives half-maximal velocity) in data set [1] is on record as 0.150 ± 0.033 mmol/L; in data set [2] it was 0.290 ± 0.027 mmol/L.

B2: zfPEPT2 (Danio rerio) (protein)
chain: MGKMKDKDVDAEKYEKAQRSPKLCGTNYPVSIAFIVVNEFCERFSYYGMKAVLTLYFMNYLHWDKNLSTAIYHAFSGLCYFTPLLGALIADSWLGKFKTIIYLSIVYVIGHVVKSVGAIPDVGDSTVHIALSMVGLGLIALGTGGIKPCVAAFGGDQFDEDNIDERRKFFSIFYMSINAGSVLSTIITPILRGDVQCFGGDCYALAFGVPAALMVIALVVFISGSGLYKKSPPEGNVLVRVCKCIGFAISNRWTNSKKSPKRSHWLDWAEEKYSKRLIQEIKMVCRVLVLYIPLPMFWALFDQQGSRWTLQATRMNMDFGGGFIIKPDQMQMLNALLILVFIPIFDMGIYPLVGLCRIKLTPLKKMATGMILAALAFCAATAVEVYVIKTVVEPPPAKESLVQVYNLMDSDVTVQFPAHNVFSEPLKPYEEPSGYSSLPLTGESQLQNVVVSHNGMNYQCRLTFTERMAYSLLLHPTAQHNGSVCNLVKDHITKSETGAAYIRFINTHTENINVTVGTEEVHASANYGISRNISVPRGEYNKAVCVTDTKEYEINLGLLDFGAFYTVILSEAGNNLAVKKMEDIQANNIHIGWQIPQYVFLTAGEVMFSITGLEFSYSQAPASMKSVLQAGWLMTVAFGNVIVLIVAEGAGMEQWVEFLLFAALLVAVSIIFSIMAYFYTYVDPDQLDKLFKEDGDGGKVESSKKDELSLGDMPKQTKM
notes: full-length cRNA expressed in Xenopus laevis oocytes
Regarding B2, the Km worked out at 0.079 ± 0.012 mmol/L in data set [3] and 0.296 ± 0.026 mmol/L in data set [4].

B3: cePEPT1 (Caenorhabditis elegans) (protein)
chain: MGYSESRSESVSSKGKTSYGHELETVPLPEKKIYTTWPDMIRHWPKTTLCIVSNEFCERFSYYGMRTVLTFYLLNVLKFTDSQSTIFFNGFTVLCYTTPLLGSIVADGYIGKFWTIFSVSILYAIGQVVLALASTKNFQSSVHPWMDLSGLLIIAFGTGGIKPCVSAFGGDQFELGQERMLSLFFSMFYFSINAGSMISTFISPIFRSQPCLGQDSCYPMAFGIPAILMIVATLVFMGGSFWYKKNPPKDNVFGEVSRLMFRAVGNKMKSGSTPKEHWLLHYLTTHDCALDAKCLELQAEKRNKNLCQKKKFIDDVRSLLRVLVMFLPVPMFWALYDQQGSVWLIQAIQMDCRLSDTLLLLPDQMQTLNAVLILLFIPLFQVIIYPVAAKCVRLTPLRKMVTGGLLASLAFLITGFVQLQVNTTLPTLPEEGEASISFWNQFETDCTITVMSGIHKRVLPHDKYLHEDKKNKSGIYNLFTTKSPAKGNGDWTLTYDLSYDGACGDTSKLEKTVKVTAKSKKIIYVGVGSFGYYQNTANTDKPTDGTGEFSMGIVTVFNSSYGGNFAMCRQNTSDFDVNHPCNPRHPADFYFWETDYNSHTDDRDQNATITGSLSSQPAVTYKQKSVKPGYWQLYYLLNTPKDVDRQTYNKTATLVAPTNYGFHRVKQGGVFIYALTGTYENPKIHELQIVQSNSVSILWQIPQIVVITAAEILFSITGYEFAYSQSAPSMKALVQALWLLTTAAGDSIIVVITILNLFENMAVEFFVYAAAMFVVIAIFALLSIFYYTYNYYTTDEEDGEIGVDDEEEIEDHNPRYSIDNKGFHPDEKDTFDMHF
notes: as for B2
In the case of B3, the Michaelis-Menten constant (Km) in data set [5] turned out to be 7.45 ± 0.61 mmol/L; in data set [6], 4.64 ± 1.67 mmol/L.
